Values quoted from earlier work as cited in US9506909B2, “Homoarginine as a biomarker for the risk of mortality” (Synlab Medizinisches Versorgungszentrum Heidelberg GmbH, priority 2010, dated 2016).

Columns and labels:
[1] = storage for 48 hours at room temperature or at 40 Celsius

Row | Molecule | concentration loss on storage [1] | in-vivo half-life (in vivo) [h] | in-vivo half-life, longer than that of BNP (printed as the difference to the half-life of BNP) [h]
1 | BNP: active natriuretic hormone, 32 amino acids, cleaved from proBNP | at least 20% | 0.333 | –
2 | NTproBNP: N-terminal pro peptide of proBNP, 76 amino acids, inactive counterpart of BNP (protein, UniProt P16860 27-102, looked up, NT-proBNP) NT-proBNP: HPLGSPGSASDLETSGLQEQRNHLQGKLSELQVEQTSLEPLQESPRPTGVWKSREVATEGIRGHRKMVLYTLRAPR | – | – | 2
